# “Also recorded” adds a separate entry of the source.
# Settings: N-glycosylation at N297
substance,measurement,value
Maxatezo / Atezolizumab (anti-PD-L1 human IgG1) heavy chain: N297A (Atezolizumab) compared with A297N back-mutation + GGGS insertion (Maxatezo),expression_or_secretion,"decreases, 1.3 g/L (aglycosylated) vs up to 4 g/L (Maxatezo)"
same,other,increases
same,stability_or_folding,"decreases, Tm1 71.01 °C (Maxatezo) vs 63.55 °C (Atezolizumab), 7.46 °C difference; also recorded: decreases, Tagg 71.2 °C (Maxatezo) vs 60.7 °C (Atezolizumab), 10.5 °C difference"

# Reference: article PMC7952408
